Laboratory results as given in patent US20200385434A1 (VOLUTION IMMUNO PHARMACEUTICALS, published 2020).

Molecular target: T1, human complement component C5 (human, UniProt P01031 19-673; P01031 678-1676)
T1 construct: Purified human C5 was amine-coupled to a CM3 sensor chip for SPR; In the CH50 assay the C5 is the one present in pooled normal human serum; Native C5 is a disulphide-linked two-chain protein made from one precursor; also called human C5
Assay: SPR (BIAcore 2000, 25 C), human C5 amine-coupled to a CM3 chip, Coversin injected at 0-96 nM, global Langmuir fit

T1 sequence (P01031 19-673 limits assumed, chain 1 of 2): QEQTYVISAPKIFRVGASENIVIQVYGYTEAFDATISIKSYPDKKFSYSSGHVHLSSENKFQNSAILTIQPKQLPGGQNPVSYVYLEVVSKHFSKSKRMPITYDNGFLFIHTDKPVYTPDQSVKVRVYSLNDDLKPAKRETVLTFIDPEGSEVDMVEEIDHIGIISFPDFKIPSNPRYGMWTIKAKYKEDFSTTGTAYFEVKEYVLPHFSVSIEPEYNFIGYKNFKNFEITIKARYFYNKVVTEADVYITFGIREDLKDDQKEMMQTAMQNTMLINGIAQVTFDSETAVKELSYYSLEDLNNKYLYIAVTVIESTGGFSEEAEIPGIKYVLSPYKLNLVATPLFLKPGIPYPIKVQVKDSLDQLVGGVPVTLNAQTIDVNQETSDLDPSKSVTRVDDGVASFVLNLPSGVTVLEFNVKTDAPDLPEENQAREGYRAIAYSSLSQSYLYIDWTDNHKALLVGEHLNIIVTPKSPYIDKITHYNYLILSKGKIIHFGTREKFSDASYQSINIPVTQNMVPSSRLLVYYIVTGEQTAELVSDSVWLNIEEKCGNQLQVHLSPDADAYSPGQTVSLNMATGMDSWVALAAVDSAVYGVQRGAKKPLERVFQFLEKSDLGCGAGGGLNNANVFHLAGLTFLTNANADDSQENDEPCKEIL
T1 sequence (P01031 678-1676 limits assumed, chain 2 of 2): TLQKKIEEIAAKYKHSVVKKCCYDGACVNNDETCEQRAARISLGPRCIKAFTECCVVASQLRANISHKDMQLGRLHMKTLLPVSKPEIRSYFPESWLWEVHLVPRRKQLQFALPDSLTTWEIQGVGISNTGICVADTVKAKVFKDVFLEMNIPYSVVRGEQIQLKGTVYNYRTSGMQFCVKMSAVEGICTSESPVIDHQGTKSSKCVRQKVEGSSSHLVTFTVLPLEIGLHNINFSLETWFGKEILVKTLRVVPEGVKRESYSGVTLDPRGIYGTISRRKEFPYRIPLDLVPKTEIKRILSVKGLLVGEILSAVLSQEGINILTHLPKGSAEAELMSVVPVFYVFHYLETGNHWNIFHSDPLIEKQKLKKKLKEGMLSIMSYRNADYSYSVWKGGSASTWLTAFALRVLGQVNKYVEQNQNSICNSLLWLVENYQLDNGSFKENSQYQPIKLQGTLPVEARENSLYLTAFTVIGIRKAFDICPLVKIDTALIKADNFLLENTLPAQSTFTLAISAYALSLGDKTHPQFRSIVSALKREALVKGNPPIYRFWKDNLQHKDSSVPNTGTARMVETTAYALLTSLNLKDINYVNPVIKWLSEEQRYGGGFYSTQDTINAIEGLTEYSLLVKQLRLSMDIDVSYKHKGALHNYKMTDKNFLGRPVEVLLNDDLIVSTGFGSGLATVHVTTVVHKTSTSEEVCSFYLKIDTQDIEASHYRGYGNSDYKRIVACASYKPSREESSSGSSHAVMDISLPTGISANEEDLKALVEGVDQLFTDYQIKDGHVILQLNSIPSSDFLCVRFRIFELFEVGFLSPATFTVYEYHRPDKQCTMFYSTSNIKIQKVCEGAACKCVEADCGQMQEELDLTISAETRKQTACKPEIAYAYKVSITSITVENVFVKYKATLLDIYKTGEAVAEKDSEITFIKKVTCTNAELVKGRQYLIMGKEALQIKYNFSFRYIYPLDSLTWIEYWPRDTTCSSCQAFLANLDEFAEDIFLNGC

B1: wild type Coversin (Ornithodoros moubata) (other)
chain: DSESDCTGSEPVDAFQAFSEGKEAYVLVRSTDPKARDCLKGEPAGEKQDNTLPVMMTFKNGTDWASTDWTFTLDGAKVTATLGNLTQNREVVYDSQSHHCHVDKVEKEVPDYEMWMLDAGGLEVEVECCRQKLEELASGRNQMYPHLKDC
notes: also called Coversin wild type; unmodified Coversin polypeptide
Binder B1 has a Kd of 1.45 nM.
